# Reference: patent EP3583122A1 (dated 2019)
# T1: TAFV GP on VSV pseudotype particles (Tai Forest virus (TAFV), UniProt Q66810 33-676)
# T1 sequence: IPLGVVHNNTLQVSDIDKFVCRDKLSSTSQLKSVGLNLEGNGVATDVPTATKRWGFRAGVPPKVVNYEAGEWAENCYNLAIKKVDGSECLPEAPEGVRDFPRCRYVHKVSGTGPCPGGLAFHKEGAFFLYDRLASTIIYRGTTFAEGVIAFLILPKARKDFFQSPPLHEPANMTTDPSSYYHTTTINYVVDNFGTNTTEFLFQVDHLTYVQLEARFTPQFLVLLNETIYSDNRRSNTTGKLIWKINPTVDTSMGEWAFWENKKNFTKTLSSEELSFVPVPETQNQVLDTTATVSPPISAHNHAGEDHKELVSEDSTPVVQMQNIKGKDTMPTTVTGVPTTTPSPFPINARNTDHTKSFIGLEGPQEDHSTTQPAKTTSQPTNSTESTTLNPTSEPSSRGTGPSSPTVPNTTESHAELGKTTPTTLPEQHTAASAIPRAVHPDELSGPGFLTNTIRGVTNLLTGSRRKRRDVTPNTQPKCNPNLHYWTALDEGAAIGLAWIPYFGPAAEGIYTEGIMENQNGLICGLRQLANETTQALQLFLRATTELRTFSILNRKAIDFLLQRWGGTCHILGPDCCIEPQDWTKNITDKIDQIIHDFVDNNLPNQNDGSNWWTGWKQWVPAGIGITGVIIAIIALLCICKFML
# T2: RESTV GP on rVSV particles (Reston virus (RESTV), UniProt Q66799 34-677)
# T2 sequence: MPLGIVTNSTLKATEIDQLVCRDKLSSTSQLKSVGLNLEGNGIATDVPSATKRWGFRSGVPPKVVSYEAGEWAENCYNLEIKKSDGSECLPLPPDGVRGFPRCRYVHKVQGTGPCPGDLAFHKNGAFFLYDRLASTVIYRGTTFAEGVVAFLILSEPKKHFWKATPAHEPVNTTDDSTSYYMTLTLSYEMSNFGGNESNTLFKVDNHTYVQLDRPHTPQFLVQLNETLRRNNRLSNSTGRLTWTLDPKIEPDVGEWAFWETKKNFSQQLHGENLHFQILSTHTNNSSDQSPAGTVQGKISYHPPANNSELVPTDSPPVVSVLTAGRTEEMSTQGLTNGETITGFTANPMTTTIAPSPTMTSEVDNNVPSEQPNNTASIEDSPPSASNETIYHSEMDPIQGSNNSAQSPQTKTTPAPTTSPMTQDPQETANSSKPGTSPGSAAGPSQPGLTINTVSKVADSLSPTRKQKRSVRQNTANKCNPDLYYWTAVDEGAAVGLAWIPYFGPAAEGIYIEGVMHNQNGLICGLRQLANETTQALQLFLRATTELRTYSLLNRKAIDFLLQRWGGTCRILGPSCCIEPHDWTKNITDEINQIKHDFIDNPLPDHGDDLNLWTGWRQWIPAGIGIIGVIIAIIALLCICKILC
# T3: EBOV GP on rVSV particles (Ebola virus (EBOV), UniProt Q05320 33-676)
# T3 sequence: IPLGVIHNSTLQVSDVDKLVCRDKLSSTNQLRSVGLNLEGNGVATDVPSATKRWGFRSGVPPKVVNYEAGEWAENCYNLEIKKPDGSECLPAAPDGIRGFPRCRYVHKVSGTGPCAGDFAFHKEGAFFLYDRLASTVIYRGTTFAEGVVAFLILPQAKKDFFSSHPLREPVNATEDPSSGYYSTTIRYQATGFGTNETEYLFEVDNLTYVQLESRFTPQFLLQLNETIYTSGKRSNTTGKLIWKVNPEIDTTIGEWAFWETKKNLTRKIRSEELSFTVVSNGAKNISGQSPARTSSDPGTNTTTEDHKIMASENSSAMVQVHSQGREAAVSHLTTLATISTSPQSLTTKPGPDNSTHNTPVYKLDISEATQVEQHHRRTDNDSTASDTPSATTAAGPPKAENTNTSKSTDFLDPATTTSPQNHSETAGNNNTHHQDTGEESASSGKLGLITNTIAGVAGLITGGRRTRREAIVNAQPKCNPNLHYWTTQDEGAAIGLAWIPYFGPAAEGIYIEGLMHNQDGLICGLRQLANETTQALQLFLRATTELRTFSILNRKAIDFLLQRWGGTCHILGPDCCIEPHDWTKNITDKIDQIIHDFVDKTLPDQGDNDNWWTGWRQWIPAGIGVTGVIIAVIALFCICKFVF
# T4: SUDV GP on rVSV particles (Sudan virus (SUDV), UniProt Q66814 33-676)
# T4 sequence: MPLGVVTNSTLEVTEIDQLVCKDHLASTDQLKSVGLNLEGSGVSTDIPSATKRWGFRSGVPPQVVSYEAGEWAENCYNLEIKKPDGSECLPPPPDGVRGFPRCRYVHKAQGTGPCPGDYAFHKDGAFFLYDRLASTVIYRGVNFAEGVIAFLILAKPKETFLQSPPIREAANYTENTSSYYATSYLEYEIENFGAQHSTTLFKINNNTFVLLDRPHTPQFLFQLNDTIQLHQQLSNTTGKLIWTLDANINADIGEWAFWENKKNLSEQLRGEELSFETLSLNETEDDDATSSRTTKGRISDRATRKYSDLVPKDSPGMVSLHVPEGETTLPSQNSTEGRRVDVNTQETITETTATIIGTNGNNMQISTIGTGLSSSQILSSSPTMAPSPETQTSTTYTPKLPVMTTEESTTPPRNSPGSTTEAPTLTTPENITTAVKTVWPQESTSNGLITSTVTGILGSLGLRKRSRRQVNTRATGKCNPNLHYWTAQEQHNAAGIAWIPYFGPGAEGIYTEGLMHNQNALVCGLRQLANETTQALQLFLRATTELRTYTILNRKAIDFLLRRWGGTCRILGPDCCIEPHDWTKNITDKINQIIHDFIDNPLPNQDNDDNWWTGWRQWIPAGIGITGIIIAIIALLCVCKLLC
# B1: mAb PE-87 (antibody, V domains shown)
# VH: QVQLVQSGVTLVQPGGSLRVSCAASGFTFSSYAMSWVRQAPGKGLEWVSAISGLGGSTYYADSVKGRFTISRDNSKNTLYLQMNSLRAEDTAVYYCAKDHRVWAAGYHFDYWGQGALVTVSS
# VL: DIVLTQSPSTLSASVGDRVTITCRASQSISSWLAWYQQKPGEAPKLLISDASSLESGVPSRFSGSGSGTEFTLTISSLQPDDFATYYCQQYYSSPTFGGGTKVEIK
# Columns and labels:
# Assay in all cases: cell-based or functional assay
# [1] = biological target: T1, TAFV GP on VSV pseudotype particles
# [2] = biological target: T2, RESTV GP on rVSV particles
# [3] = biological target: T3, EBOV GP on rVSV particles
# [4] = biological target: BDBV GP on rVSV particles (Bundibugyo virus (BDBV))
# [5] = biological target: T4, SUDV GP on rVSV particles
binder,measurement,setting,value
B1,"IC50, half-maximal neutralization of viral infectivity (rVSV-GP)",[1],0.9 nM
same,"IC50, half-maximal neutralization of viral infectivity (rVSV-GP)",[2],0.1 nM
same,"IC50, half-maximal neutralization of viral infectivity (rVSV-GP)",[3],1 nM
same,"IC50, half-maximal neutralization of viral infectivity (rVSV-GP)",[4],0.4 nM
same,"IC50, half-maximal neutralization of viral infectivity (rVSV-GP)",[5],0.8 nM
